Laboratory results: PMC2597217

B1: DBE2 (dsDNA)
DNA 1: TCTTGTTTACATTTTG
DNA 2: CAAAATGTAAACAAGA
B2: IRE (dsDNA)
DNA 1: TGGTTTGTTTTGCTTG
DNA 2: CAAGCAAAACAAACCA

Columns and labels:
FoxO1 DBD S249E = FoxO1 DBD S249E (human, UniProt Q12778 151-266, S249E); test: EMSA
FoxO1 DBD S184C = FoxO1 DBD S184C (human, UniProt Q12778 151-266, S184C); test: crystal structure
FoxO1 DBD A207C = FoxO1 DBD A207C (human, UniProt Q12778 151-266, A207C); test: crystal structure
FoxO1 DBD A207C, sequence (Q12778 151-266 A207C): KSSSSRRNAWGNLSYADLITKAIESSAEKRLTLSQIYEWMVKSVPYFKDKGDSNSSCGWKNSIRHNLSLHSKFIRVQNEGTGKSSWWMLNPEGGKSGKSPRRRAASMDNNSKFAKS

FoxO1 DBD S249E, sequence (Q12778 151-266 S249E): as the sequence (Q12778 151-266 A207C) above, with C57A, S99E counted along it
FoxO1 DBD S184C, sequence (Q12778 151-266 S184C): as the sequence (Q12778 151-266 A207C) above, with S34C, C57A counted along it

Binder	binding result (FoxO1 DBD S249E)	binding result (FoxO1 DBD S184C)	binding result (FoxO1 DBD A207C)
B1	binds	–	–
B2	binds	binds	binds
